Data reported in patent publication US20030068675, “Position dependent recognition of GNN nucleotide triplets by zinc fingers” (published 2003).

Key:
Assay in all cases: EMSA
Details in all cases: tags: MBP fusion
[1] = biological target: T1, ZFP SBS#670 (synthetic)
T1 chain: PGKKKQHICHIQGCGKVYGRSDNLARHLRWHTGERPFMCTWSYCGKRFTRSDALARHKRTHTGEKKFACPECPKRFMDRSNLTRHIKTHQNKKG
Method in brief: (§1)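 Purified ZFP was titrated against labeled double-stranded target (1 nM or lower, at least 10-fold below expected Kd) carrying the natural binding site with flanks. Binding buffer was 10 mM Tris pH 7.5, 100 mM KCl, 1 mM MgCl2, 0.1 mM ZnCl2, 5 mM DTT, 10% glycerol, 0.02% BSA, with equilibration for at least 45 min. Bound and free target were separated on a 10% polyacrylamide gel.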

[2] = biological target: T2, ZFP SBS#884 (synthetic)
T2 chain: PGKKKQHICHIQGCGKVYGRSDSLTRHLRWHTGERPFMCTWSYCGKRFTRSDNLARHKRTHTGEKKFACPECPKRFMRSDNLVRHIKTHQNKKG
Method in brief: as §1

[3] = biological target: T3, ZFP SBS#817 (synthetic)
T3 chain: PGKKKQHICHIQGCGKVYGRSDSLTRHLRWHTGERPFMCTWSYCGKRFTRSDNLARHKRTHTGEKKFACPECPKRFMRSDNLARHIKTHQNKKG
Method in brief: as §1

[4] = biological target: T4, ZFP SBS#897 (synthetic)
T4 chain: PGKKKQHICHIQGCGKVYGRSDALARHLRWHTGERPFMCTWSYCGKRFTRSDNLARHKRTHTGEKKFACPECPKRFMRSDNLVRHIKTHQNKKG
Method in brief: as §1

[5] = biological target: T5, ZFP SBS#668 (synthetic)
T5 chain: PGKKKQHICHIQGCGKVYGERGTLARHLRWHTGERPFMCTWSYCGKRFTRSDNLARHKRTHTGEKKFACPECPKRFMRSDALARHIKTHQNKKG
Method in brief: as §1

[6] = biological target: T6, ZFP SBS#280 (synthetic)
T6 chain: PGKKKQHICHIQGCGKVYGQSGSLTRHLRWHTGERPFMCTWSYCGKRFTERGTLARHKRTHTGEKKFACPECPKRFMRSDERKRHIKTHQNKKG
Method in brief: as §1

[7] = biological target: T7, ZFP SBS#277 (synthetic)
T7 chain: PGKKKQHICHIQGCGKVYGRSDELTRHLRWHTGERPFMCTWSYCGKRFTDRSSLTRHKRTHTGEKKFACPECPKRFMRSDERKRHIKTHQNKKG
Method in brief: as §1

[8] = biological target: T8, ZFP SBS#276 (synthetic)
T8 chain: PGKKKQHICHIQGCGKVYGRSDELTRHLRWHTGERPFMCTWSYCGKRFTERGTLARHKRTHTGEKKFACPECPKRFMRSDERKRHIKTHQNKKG
Method in brief: as §1

[9] = biological target: T9, ZFP SBS#279 (synthetic)
T9 chain: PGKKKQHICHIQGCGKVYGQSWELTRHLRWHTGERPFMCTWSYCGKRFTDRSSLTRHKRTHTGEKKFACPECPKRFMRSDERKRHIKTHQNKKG
Method in brief: as §1

[10] = biological target: T10, ZFP SBS#281 (synthetic)
T10 chain: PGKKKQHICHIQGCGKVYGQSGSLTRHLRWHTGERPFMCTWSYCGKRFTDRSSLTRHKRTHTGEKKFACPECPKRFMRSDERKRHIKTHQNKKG
Method in brief: as §1

[11] = biological target: T11, ZFP SBS#252 (synthetic)
T11 chain: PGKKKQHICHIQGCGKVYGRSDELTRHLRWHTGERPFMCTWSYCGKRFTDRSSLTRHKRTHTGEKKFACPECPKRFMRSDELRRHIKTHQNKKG
Method in brief: as §1

[12] = biological target: T12, ZFP SBS#278 (synthetic)
T12 chain: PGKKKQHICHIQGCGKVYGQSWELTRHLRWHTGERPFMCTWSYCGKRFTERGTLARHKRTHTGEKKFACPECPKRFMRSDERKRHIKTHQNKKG
Method in brief: as §1

[13] = biological target: ZFP SBS#588 (synthetic, UniProt P08047)
Method in brief: as §1

[14] = biological target: T13, ZFP SBS#667 (synthetic)
T13 chain: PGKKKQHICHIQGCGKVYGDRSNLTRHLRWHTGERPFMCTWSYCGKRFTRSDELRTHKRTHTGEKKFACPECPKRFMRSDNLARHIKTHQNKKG
Method in brief: as §1

[15] = biological target: T14, ZFP SBS#842 (synthetic, UniProt P08047)
T14 chain: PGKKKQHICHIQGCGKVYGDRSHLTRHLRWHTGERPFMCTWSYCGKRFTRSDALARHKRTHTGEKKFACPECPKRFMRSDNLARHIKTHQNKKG
Method in brief: as §1

[16] = biological target: T15, ZFP SBS#829 (synthetic)
T15 chain: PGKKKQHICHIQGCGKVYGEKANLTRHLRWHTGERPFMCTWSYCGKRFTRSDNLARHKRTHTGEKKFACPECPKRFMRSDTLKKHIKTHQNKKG
Method in brief: as §1

[17] = biological target: T16, ZFP SBS#828 (synthetic)
T16 chain: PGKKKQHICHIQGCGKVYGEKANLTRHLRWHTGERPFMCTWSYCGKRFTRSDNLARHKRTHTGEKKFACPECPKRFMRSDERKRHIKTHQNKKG
Method in brief: as §1

[18] = biological target: ZFP SBS#673 (synthetic)
Method in brief: as §1

[19] = biological target: ZFP SBS#850 (synthetic)
Method in brief: as §1

[20] = biological target: T17, ZFP SBS#836 (synthetic, UniProt P08047)
T17 chain: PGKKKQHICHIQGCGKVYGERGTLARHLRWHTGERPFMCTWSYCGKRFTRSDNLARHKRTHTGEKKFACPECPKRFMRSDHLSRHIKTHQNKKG
Method in brief: as §1

[21] = biological target: T18, ZFP SBS#848 (synthetic, UniProt P08047)
T18 chain: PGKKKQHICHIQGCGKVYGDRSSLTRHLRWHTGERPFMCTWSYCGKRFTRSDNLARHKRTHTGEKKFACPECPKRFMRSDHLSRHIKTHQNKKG
Method in brief: as §1

[22] = biological target: T19, ZFP SBS#595 (synthetic)
T19 chain: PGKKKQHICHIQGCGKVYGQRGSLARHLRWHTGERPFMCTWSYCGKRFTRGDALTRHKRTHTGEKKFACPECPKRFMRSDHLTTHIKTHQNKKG
Method in brief: as §1

[23] = biological target: ZFP SBS#801 (synthetic)
Method in brief: as §1

[24] = biological target: T20, ZFP SBS#888 (synthetic)
T20 chain: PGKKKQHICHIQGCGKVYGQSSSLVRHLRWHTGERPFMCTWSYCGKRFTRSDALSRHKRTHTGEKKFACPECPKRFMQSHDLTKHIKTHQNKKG
Method in brief: as §1

[25] = biological target: T21, ZFP SBS#887 (synthetic)
T21 chain: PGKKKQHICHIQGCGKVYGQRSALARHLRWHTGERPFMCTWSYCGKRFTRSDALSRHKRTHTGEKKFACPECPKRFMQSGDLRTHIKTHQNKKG
Method in brief: as §1

[26] = biological target: T22, ZFP SBS#891 (synthetic)
T22 chain: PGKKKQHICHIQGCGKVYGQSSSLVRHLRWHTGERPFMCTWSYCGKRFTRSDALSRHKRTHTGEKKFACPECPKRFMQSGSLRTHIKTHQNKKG
Method in brief: as §1

[27] = biological target: T23, ZFP SBS#894 (synthetic)
T23 chain: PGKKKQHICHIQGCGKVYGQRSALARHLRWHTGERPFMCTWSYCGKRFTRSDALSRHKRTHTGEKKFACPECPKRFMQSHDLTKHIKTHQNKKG
Method in brief: as §1

[28] = biological target: T24, ZFP SBS#672 (synthetic)
T24 chain: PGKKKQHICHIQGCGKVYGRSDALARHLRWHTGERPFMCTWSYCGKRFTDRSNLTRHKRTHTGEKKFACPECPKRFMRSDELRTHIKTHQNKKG
Method in brief: as §1

[29] = biological target: T25, ZFP SBS#527 (synthetic, UniProt P08047)
T25 chain: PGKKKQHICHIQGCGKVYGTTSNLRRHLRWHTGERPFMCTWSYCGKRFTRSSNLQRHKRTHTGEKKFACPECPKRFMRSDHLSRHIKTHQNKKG
Method in brief: as §1

[30] = biological target: T26, ZFP SBS#528 (synthetic, UniProt P08047)
T26 chain: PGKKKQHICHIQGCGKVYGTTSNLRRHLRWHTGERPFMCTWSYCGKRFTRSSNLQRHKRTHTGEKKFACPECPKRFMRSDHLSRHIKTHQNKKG
Method in brief: as §1

[31] = biological target: T27, ZFP SBS#606 (synthetic, UniProt P08047)
T27 chain: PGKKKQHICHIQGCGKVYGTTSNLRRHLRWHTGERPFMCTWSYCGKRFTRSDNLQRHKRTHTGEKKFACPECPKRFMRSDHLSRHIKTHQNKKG
Method in brief: as §1

[32] = biological target: T28, ZFP SBS#674 (synthetic)
T28 chain: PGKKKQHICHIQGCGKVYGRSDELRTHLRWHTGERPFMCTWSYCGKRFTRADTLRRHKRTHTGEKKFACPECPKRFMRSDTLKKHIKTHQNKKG
Method in brief: as §1

Sequence of ZFP SBS#673 (synthetic) (chain, as listed by the source): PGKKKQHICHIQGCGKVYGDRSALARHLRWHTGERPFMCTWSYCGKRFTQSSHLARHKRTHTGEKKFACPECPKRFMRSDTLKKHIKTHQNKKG
Sequence of ZFP SBS#801 (synthetic) (chain, as listed by the source): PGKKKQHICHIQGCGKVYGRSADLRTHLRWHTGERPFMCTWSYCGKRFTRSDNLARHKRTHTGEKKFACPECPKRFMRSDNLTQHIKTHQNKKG

B1: GACGTGGAGG (dsDNA)
DNA 1: GACGTGGAGG
DNA 2: CCTCCACGTC
[1]
  Kd: 0.57 nM

B2: GAGGAGGTGA (dsDNA)
DNA 1: GAGGAGGTGA
DNA 2: TCACCTCCTC
[2]
  Kd: 0.15 nM
[3]
  Kd: 0.31 nM
[4]
  Kd: 0.07 nM

B3: GTGGAGGCCA (dsDNA)
DNA 1: GTGGAGGCCA
DNA 2: TGGCCTCCAC
[5]
  Kd: 1.13 nM

B4: GCGGCCGCG (dsDNA)
DNA 1: GCGGCCGCG
DNA 2: CGCGGCCGC
[6]
  Kd: 160 nM
[7]
  Kd: 107 nM
[8]
  Kd: 90 nM
[9]
  Kd: 260 nM
[10]
  Kd: 225 nM
[11]
  Kd: 100 nM
[12]
  Kd: 190 nM

B5: GGGGGGGGGG (dsDNA)
DNA 1: GGGGGGGGGG
DNA 2: CCCCCCCCCC
[13]
  Kd: 30 nM

B6: GAGTCGGACG (dsDNA)
DNA 1: GAGTCGGACG
DNA 2: CGTCCGACTC
[14]
  Kd: 50 nM

B7: GAGGTGGGCT (dsDNA)
DNA 1: GAGGTGGGCT
DNA 2: AGCCCACCTC
[15]
  Kd: 5.4 nM

B8: GCGGAGGACC (dsDNA)
DNA 1: GCGGAGGACC
DNA 2: GGTCCTCCGC
[16]
  Kd: 0.52 nM
[17]
  Kd: 0.1 nM

B9: GCGGGTGTCT (dsDNA)
DNA 1: GCGGGTGTCT
DNA 2: AGACACCCGC
[18]
  Kd: 48.3 nM

B10: CAGGCTGTGG (dsDNA)
DNA 1: CAGGCTGTGG
DNA 2: CCACAGCCTG
[19]
  Kd: 17 nM

B11: GGGGAGGCCC (dsDNA)
DNA 1: GGGGAGGCCC
DNA 2: GGGCCTCCCC
[20]
  Kd: 24.2 nM
[21]
  Kd: 49.5 nM

B12: TGGTTGGTAT (dsDNA)
DNA 1: TGGTTGGTAT
DNA 2: ATACCAACCA
[22]
  Kd: 73.3 nM

B13: AAGGAGTCGC (dsDNA)
DNA 1: AAGGAGTCGC
DNA 2: GCGACTCCTT
[23]
  Kd: 0.85 nM

B14: TCAGTGGTAT (dsDNA)
DNA 1: TCAGTGGTAT
DNA 2: ATACCACTGA
[24]
  Kd: 14 nM
[25]
  Kd: 23.8 nM
[26]
  Kd: 18.5 nM
[27]
  Kd: 6.15 nM

B15: TCGGACGTGG (dsDNA)
DNA 1: TCGGACGTGG
DNA 2: CCACGTCCGA
[28]
  Kd: 24 nM

B16: GGGGAGGATC (dsDNA)
DNA 1: GGGGAGGATC
DNA 2: GATCCTCCCC
[29]
  Kd: 2 nM
[30]
  Kd: 10 nM
[31]
  Kd: 0.2 nM

B17: GCGGCGTCGG (dsDNA)
DNA 1: GCGGCGTCGG
DNA 2: CCGACGCCGC
[32]
  Kd: 27.5 nM
